According to the supplement of paper PMC10567573:
± gives the standard deviation.

Test: protein stability index of a GFP-peptide fusion (GPS, HEK-293T) (PSI 1-6); higher = more stable
[1] = treatment: DMSO, c terminus: a fixed tail appended
[2] = treatment: MLN4924 1 uM, 8 h, c terminus: a fixed tail appended
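Also: 24-mer peptide tiles fused after GFP, lentivirally expressed, FACS-sorted into six equal bins by GFP/DsRed ratio, decoded by Illumina sequencing, PSI is the read-weighted mean bin number.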

Sequence	protein stability index [1]	protein stability index [2]	protein stability index (treatment: DMSO, c terminus: native)	protein stability index (treatment: MLN4924 1 uM, 8 h, c terminus: native)
PGMASHPPIPILELADHIERLKAN [PTPRD]	3.6 ± 0.18	3.81 ± 0.19	–	–
GKRRKDEISVDSLDFSKKILHTAW [PPP2R2B]	2.34 ± 0.2	2.52 ± 0.049	–	–
LQPPHESRPQPIYYGFSESAESQG [ADAMTSL2]	4.18 ± 0.39	4.22 ± 0.56	–	–
SVTLEDVTPKKSPPPKTNLTPGQS [FAN1]	5.11 ± 0.18	5.24 ± 0.34	–	–
ALRMATWNQILDPWVYILLRKAVL [PTGFR]	2.98 ± 0.68	2.43 ± 0.41	–	–
NGITQGDKLRALKSQRQPRTSPSC [CDC14A]	4.16 ± 0.19	4.14 ± 0.071	–	–
HMEEEVEDFLLKKPIVPTDGKRVI [CDC25A]	4.68 ± 0.096	4.84 ± 0.24	–	–
EDEEPQEPNRLETGEAGEELDLRL [RTN2]	5.73 ± 0.12	5.52 ± 0.4	–	–
VRSLRGEEPVPRERDRDPCGGSGG [LURAP1L]	5.34 ± 0.24	5.35 ± 0.095	–	–
IAWIKDKLLHIYYQNSIDDRLLVE [PDS5B]	2.82 ± 0.36	2.43 ± 0.44	–	–
KAVKYQSKARRKKIMIIICCVILG [STX1A]	2.18 ± 0.8	2.25 ± 0.43	–	–
VQGLMKEYLLSFPAGKTPVPAGEE [VPS39]	3.83 ± 0.39	3.88 ± 0.093	–	–
MGGCPVRKRRRNGSKEGNHHSTQP [FAM104B]	4.72 ± 0.17	4.86 ± 0.24	–	–
WSIFYFFKSFQYPLPWSECPVVRN [SLC6A17]	2.41 ± 0.17	2.59 ± 0.47	–	–
KAKRNRTCRPPSSSESSSDSDNSG [ANKRD17]	5.64 ± 0.27	5.43 ± 0.2	–	–
RPISGTAVAHKTPRCPGSVNEKLP [SMOC2]	4.53 ± 0.14	4.59 ± 0.26	–	–
LFFPVIYDVKYLMKSCKNLKGGLQ [CNOT7]	2.72 ± 0.35	2.5 ± 0.28	–	–
LTFHGLILRSQLVTLLVRGVCYSE [CLCN6]	2.98 ± 0.35	3.03 ± 0.26	–	–
IEGLKEELAYLRKNHEEEMLALRG [KRT16]	3.79 ± 0.35	3.77 ± 0.32	–	–
YEYTSCTTFSTTSGYMEGYYTFHF [FBXO3]	3.37 ± 0.42	3.2 ± 0.31	–	–
LVDNVYCIGQRRFHTMDELVEHYK [NCK2]	3.68 ± 0.24	3.96 ± 0.16	–	–
EYGTCMCLVKGIFYHCSNDDEGDS [SPRY1]	3.14 ± 0.21	3.27 ± 0.23	–	–
SKRLAVPCKLEKMRILAHGELVLA [TLE6]	2.26 ± 0.49	2.35 ± 0.45	–	–

Sequence	protein stability index [1]	protein stability index [2]	protein stability index (treatment: DMSO, c terminus: native)	protein stability index (treatment: MLN4924 1 uM, 8 h, c terminus: native)
TYKHINEVYYAKKKRRAQQAPPQD [DYRK1B]	3.7 ± 0.085	3.66 ± 0.21	–	–
KYKSFNRTAMPYGGYEKASKRMTF [MYOZ1]	2.34 ± 0.31	2.57 ± 0.24	–	–
ARFQDKQYSSHHTAEKRKRLGELF [CHGB]	3.58 ± 0.44	3.56 ± 0.11	–	–
YALQMEQLNGILLHLESELAQTRA [KRT18]	2.24 ± 0.18	2.43 ± 0.29	–	–
HHSLQAHFRPRFHPLPTVIIVNLL [TMEM192]	2.68 ± 0.28	2.35 ± 0.48	–	–
PTVDLNQVLNETRSQYEALVETNR [KRT34]	3.37 ± 0.55	3.79 ± 0.48	–	–
TLSWYFLLCVNYFFYGETVTDYFF [CDS2]	3.35 ± 0.64	3.48 ± 0.26	–	–
SRPNGTSAMLLVTLGKVLKVIVVM [MED27]	2.88 ± 0.46	2.93 ± 0.68	–	–
VETLVKKKIPIISNAMLVGDKLKF [ACSBG2]	2.27 ± 0.38	2.61 ± 0.27	–	–
KFFFKSMDDDFGVVKEEISDDNAK [DVL3]	4.76 ± 0.19	4.81 ± 0.099	–	–
VIPFKVDTILKYLKDHFSHLLGIP [IQUB]	2.92 ± 0.12	2.65 ± 0.18	–	–
EKINKIKWLPQQNAAHSLLSTNDK [PPP2R2C]	4.07 ± 0.19	4.15 ± 0.11	–	–
ASTSLPTKPTQGASSASEPQGLFV [CLPTM1]	4.42 ± 0.12	4.29 ± 0.48	–	–
GMVRAHGVRVSVPCPSTTCCRACS [BET1L]	3.04 ± 0.29	3.4 ± 0.51	–	–
PVKASRSHQELHRELLMNHRRGLG [FAM107A]	3.73 ± 0.27	3.95 ± 0.42	–	–
LFPQWHLPIKIAAIIASLTFLYTL [STEAP1]	3.39 ± 0.8	3.13 ± 0.48	–	–
LSAASPDTGHDSDKSDQSLPNASA [TRAF3IP2]	5.53 ± 0.28	5.51 ± 0.13	–	–
ATGMEVGWYRPPFSRVVHLYRNGK [MOG]	3.12 ± 0.36	2.98 ± 0.14	–	–
TVQEAATSRRARASKKTAQPWVEV [MFSD9]	3.22 ± 0.14	3.1 ± 0.25	–	–
DHQDSDEFCRNTLCAPEVISLINT [FAF2]	3.72 ± 0.37	3.67 ± 0.38	–	–
CSEDWVGYQRKCYFISTVKRSWTS [CD69]	2.36 ± 0.33	2.65 ± 0.49	–	–
DPTGPAGLGRPTPGLSQGPGKETL [EHMT1]	5.17 ± 0.15	5.09 ± 0.13	–	–
FALQSDLDQPAFQQLVSFSESGSL [ISL2]	2.91 ± 0.37	3.03 ± 0.3	–	–

Sequence	protein stability index [1]	protein stability index [2]	protein stability index (treatment: DMSO, c terminus: native)	protein stability index (treatment: MLN4924 1 uM, 8 h, c terminus: native)
RRSNSPDKFKRPTPPPSPNTQTPV [CCDC6]	5.27 ± 0.19	5.25 ± 0.16	–	–
APSFSSYLYFLFCPTLIYRETYPR [SOAT2]	2.99 ± 0.17	2.7 ± 0.44	–	–
TYSGKAADVWSLGVMLYTLLVGRY [TRIB1]	2.42 ± 0.36	2.21 ± 0.042	–	–
EAFYYIHNLVVACEIQVRTLASAG [ADD1]	2.93 ± 0.63	2.98 ± 0.57	–	–
GPLLGTNGATDDSKTNLIVNYLPQ [ELAVL3]	3.84 ± 0.3	3.92 ± 0.24	–	–
STPAPAERPLPNPEGLDSDFLAVL [SLA]	4.29 ± 0.35	4.26 ± 0.21	–	–
LHRESSNFDSIYICPSTFACAQLA [HDAC6]	2.15 ± 0.46	2.11 ± 0.16	–	–
KEERKTEVVMNSQQTPVGTPKDKR [PALM]	5.43 ± 0.32	5.36 ± 0.32	–	–
LKPLCGCHSFAAAADGPTVCCNPY [SMAD6]	2.75 ± 0.5	2.92 ± 0.39	–	–
DEMVIVKDIDMFSMCEHHLVPFVG [GCH1]	2.76 ± 0.22	2.64 ± 0.37	–	–
VAQFVLTEGNPRWEQTHLTYRIEN [MMP1]	2.35 ± 0.36	2.35 ± 0.43	–	–
AAALLSNTTCQTENRLSVFFSVIF [PTGFR]	2.43 ± 0.35	2.33 ± 0.18	–	–
YRGMLDTHHKLCTFILKNPPENSD [EIF5]	3.29 ± 0.2	3.25 ± 0.18	–	–
TLYRNRSNLETIFRIIDSDHSGFI [PPEF2]	2.06 ± 0.4	1.99 ± 0.099	–	–
GAGDWREKEAKDLTELVQRRITYL [FUT8]	3.61 ± 0.27	3.31 ± 0.3	–	–
IIHETAVGMNFLHCMAPPLLHLDL [RIPK4]	2.6 ± 0.64	2.57 ± 0.85	–	–
RDLASVPPELTASRQSFRMAMGNP [DVL3]	3.75 ± 0.32	3.81 ± 0.13	–	–
YVEVKEGKTWKQICDKHWTAKNSR [LOXL2]	2.62 ± 0.8	3.28 ± 0.61	–	–
NPTQNVRTILLSVISLLNEPNTFS [CDC34]	2.86 ± 0.54	2.95 ± 0.61	–	–
QRSTVFKTTIPEEEEEEEEAAGVV [LMNB1]	5.6 ± 0.11	5.56 ± 0.22	–	–
KNKKSSTGEASENGLEDIDRILER [TCF25]	5.22 ± 0.48	5.49 ± 0.18	–	–
LSASGPFESHDLLRKGFSCVKNEL [POMP]	3.37 ± 0.053	3.35 ± 0.43	–	–
KDEDLDLFPASPTREAHRESSVPV [FBF1]	5.11 ± 0.33	5.02 ± 0.35	–	–

Sequence	protein stability index [1]	protein stability index [2]	protein stability index (treatment: DMSO, c terminus: native)	protein stability index (treatment: MLN4924 1 uM, 8 h, c terminus: native)
ADNMLEYKSWLKNLAKEQLSRENI [PPEF2]	3.61 ± 0.27	3.75 ± 0.38	–	–
SKAWHQKSHFQNSREWSGKEKWWD [PBXIP1]	2.94 ± 0.04	3.2 ± 0.34	–	–
YIHSCPKMKYKGQYRPSDLLCPET [ATE1]	2.06 ± 0.29	2.47 ± 0.34	–	–
SCLKAIVLFTSDACGLSDVAHVES [NR2F2]	2.43 ± 0.7	2.08 ± 0.36	–	–
SARQGELQKVLLMLVDGIDPNFKM [EHMT1]	1.98 ± 0.23	2.04 ± 0.29	–	–
FRCPTCRHEVIMDRHGVYGLQRNL [TRIM63]	2.31 ± 0.3	2.83 ± 0.52	–	–
RCVRVFLEHGADPTVKDLIGGFTA [ASB7]	2.4 ± 0.78	2.04 ± 0.41	–	–
KIVEFNPMVLKGKIRPDSSRPELL [GLT8D2]	3.09 ± 0.36	3.35 ± 0.39	–	–
FLYMLMEYVPGGELFSYLRNRGRF [PRKX]	2.75 ± 0.29	2.42 ± 0.28	–	–
NSLFIDRQKCMAHRTRYPTILQLA [TEKT4]	2.23 ± 0.34	2.12 ± 0.23	–	–
VLDLSKSLSAALLTAALLTFDTGC [POMT2]	3.38 ± 0.38	2.98 ± 0.2	–	–
VLEEQLVKAKEQIENYKKQTRNGL [FUT8]	3.77 ± 0.1	3.89 ± 0.35	–	–
ALSEILRIGKRPDLLTFVQNLCKG [NEUROD6]	2.49 ± 0.46	2.29 ± 0.21	–	–
TPAEGDTEEDDGFVDILESDLKDD [CDC25B]	5.34 ± 0.3	5.62 ± 0.24	–	–
ESSTREVVFPYTSKSCMRAVLEYL [RHOBTB2]	2.74 ± 0.13	2.32 ± 0.25	–	–
EVEELDNWQPAVPLMHMLHLSGAL [SPATS1]	2.18 ± 0.27	2.16 ± 0.35	–	–
YHSQDRYEFSSHITRGEHRFHMS [IKZF1]	–	–	2.85 ± 0.39	2.86 ± 0.58
MTVGILSNSLAIAILMKAYQRFRQ [PTGFR]	2.17 ± 0.28	2.2 ± 0.31	–	–
KRNFISSKSKQPAGHRRPAGGIRE [C22orf31]	4.07 ± 0.11	3.99 ± 0.22	–	–
ELKVKDSQPIDLSACTVALHIFQL [TRIP13]	2.58 ± 0.47	2.15 ± 0.6	–	–
